Measurements as given in IntAct's records for PubMed 20562859.

Columns and labels:
echa_human HADHA = echa_human HADHA (UniProt P40939)
atg3_human ATG3 = atg3_human ATG3 (UniProt Q9NT62)
tbc15_human TBC1D15 = molecular target: T1, tbc15_human TBC1D15 (UniProt Q8TC07)
T1 sequence: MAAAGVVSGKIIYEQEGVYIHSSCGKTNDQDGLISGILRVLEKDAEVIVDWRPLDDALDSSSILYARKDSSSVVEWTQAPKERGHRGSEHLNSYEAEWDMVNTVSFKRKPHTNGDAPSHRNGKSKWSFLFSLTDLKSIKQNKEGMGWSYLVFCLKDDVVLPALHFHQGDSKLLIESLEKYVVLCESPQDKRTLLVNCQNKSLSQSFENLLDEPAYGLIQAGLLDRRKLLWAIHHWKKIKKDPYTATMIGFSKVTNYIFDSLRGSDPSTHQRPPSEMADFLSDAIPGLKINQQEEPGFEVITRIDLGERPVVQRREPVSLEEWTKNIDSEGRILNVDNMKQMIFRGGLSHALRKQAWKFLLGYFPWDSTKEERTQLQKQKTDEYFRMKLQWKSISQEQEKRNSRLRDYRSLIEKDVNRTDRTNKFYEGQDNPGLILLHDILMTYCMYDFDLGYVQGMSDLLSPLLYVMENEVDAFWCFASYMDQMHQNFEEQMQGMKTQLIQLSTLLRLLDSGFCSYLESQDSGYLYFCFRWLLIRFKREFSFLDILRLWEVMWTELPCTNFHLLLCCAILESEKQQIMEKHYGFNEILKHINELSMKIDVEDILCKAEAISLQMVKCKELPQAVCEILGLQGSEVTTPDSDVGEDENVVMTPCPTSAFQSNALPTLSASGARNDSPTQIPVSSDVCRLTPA

tcpr2_human TECPR2 = molecular target: T2, tcpr2_human TECPR2 (UniProt O15040)
T2 sequence: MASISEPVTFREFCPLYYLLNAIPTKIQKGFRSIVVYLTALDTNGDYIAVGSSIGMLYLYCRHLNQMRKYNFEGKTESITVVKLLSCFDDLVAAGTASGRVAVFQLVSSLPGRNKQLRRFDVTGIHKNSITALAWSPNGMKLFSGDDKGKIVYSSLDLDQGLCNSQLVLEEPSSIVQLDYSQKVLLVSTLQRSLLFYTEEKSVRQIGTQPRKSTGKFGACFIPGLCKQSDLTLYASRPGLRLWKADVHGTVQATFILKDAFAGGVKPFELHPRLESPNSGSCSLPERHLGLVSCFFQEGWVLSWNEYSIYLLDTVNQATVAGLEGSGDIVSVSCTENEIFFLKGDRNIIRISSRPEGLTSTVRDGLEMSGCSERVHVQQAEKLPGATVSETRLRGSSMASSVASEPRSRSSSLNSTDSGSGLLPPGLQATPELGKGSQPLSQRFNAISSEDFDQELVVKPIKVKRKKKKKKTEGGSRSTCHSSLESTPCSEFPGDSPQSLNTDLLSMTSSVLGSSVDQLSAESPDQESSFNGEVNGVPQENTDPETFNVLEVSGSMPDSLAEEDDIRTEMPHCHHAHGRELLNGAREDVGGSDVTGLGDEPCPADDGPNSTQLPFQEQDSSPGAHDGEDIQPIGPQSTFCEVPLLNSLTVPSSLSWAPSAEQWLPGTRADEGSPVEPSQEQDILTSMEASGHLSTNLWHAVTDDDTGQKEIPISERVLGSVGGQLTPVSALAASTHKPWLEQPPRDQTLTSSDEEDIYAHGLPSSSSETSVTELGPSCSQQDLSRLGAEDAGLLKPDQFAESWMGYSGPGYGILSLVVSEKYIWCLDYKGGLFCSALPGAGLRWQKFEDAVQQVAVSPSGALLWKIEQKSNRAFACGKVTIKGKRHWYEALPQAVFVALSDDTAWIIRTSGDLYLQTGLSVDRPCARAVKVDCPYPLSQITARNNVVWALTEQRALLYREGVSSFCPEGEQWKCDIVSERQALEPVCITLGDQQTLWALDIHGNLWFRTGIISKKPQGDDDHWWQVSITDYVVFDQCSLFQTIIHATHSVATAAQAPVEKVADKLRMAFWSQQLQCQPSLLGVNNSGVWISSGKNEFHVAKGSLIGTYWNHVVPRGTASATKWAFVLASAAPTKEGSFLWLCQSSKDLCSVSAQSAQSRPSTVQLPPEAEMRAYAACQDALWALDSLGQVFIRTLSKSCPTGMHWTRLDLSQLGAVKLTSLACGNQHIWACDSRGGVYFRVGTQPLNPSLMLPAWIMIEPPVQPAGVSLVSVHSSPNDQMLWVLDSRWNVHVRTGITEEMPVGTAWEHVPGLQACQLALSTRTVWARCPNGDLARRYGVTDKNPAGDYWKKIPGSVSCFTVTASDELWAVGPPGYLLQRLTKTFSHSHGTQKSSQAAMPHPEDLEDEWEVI

stk3_human STK3 = molecular target: T3, stk3_human STK3 (UniProt Q13188)
T3 sequence: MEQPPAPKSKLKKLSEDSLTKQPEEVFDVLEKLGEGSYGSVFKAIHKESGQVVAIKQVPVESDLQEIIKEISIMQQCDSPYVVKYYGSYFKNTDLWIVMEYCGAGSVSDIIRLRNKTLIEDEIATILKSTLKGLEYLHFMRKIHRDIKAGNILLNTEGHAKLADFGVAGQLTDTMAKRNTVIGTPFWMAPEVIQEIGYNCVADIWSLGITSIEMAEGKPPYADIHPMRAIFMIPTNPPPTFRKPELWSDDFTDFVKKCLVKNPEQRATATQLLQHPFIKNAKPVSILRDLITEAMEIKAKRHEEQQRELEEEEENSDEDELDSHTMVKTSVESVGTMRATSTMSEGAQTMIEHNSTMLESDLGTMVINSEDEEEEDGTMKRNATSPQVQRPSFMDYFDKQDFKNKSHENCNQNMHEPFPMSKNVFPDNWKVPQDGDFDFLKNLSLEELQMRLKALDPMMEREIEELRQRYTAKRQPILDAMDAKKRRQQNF

atg10_human ATG10 = atg10_human ATG10 (UniProt Q9H0Y0)
Sequence of atg10_human ATG10 (Q9H0Y0 whole entry): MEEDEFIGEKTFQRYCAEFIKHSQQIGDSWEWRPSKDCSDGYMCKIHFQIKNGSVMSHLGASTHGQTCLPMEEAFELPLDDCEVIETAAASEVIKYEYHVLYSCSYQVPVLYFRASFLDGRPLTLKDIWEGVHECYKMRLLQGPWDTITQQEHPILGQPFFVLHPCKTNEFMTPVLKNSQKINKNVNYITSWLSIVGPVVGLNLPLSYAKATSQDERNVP

Sequence of echa_human HADHA (P40939 whole entry): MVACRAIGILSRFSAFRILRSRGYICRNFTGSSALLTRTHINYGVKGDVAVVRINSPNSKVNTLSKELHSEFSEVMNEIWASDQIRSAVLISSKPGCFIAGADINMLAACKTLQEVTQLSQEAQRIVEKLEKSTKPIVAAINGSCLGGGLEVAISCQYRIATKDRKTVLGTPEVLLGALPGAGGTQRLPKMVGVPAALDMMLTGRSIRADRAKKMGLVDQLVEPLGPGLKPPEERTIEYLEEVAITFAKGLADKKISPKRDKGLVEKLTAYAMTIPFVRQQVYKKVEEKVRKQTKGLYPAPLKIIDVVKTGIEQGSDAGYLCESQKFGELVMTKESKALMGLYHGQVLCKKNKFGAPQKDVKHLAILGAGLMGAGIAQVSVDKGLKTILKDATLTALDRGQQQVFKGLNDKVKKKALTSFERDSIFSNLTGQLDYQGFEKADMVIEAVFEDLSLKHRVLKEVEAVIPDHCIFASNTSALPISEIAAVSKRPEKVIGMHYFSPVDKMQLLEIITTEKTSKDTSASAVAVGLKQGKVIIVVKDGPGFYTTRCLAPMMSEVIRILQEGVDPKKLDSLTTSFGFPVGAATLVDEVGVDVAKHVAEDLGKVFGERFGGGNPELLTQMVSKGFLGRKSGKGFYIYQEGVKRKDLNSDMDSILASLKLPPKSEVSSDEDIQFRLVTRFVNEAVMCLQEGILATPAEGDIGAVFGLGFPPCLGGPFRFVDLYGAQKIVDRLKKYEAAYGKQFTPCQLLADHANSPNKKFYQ
Sequence of atg3_human ATG3 (Q9NT62 whole entry): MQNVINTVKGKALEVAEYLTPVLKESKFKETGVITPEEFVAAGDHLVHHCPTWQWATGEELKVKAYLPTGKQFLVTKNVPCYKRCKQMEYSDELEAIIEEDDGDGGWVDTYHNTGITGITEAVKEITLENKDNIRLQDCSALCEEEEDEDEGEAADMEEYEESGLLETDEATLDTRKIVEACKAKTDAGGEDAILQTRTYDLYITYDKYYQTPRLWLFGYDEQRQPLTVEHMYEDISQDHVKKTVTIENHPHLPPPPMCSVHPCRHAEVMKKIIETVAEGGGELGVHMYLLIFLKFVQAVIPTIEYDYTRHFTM

| effect of a mutation on the interaction (echa_human HADHA) | effect of a mutation on the interaction (atg3_human ATG3) | effect of a mutation on the interaction (tbc15_human TBC1D15) | effect of a mutation on the interaction (tcpr2_human TECPR2) | effect of a mutation on the interaction (stk3_human STK3) | effect of a mutation on the interaction (atg10_human ATG10) | Substance |
| --- | --- | --- | --- | --- | --- | --- |
| increasing interaction | disrupting interaction | decreasing interaction | decreasing interaction | increasing interaction | increasing interaction | Microtubule-associated protein 1 light chain 3 beta (Homo sapiens) (from UniProt Q9GZQ8) F52A;L53A |
| disrupting interaction | disrupting interaction | decreasing interaction | disrupting interaction | decreasing interaction | decreasing interaction | Microtubule-associated protein 1 light chain 3 beta (Homo sapiens) (from UniProt Q9GZQ8) R69A |
